The values below are quoted from earlier work in patent US7449311B2, “Method of producing macedocin by culturing Streptococcus macedonicus” (Vrije Universiteit Brussel, priority 2001, dated 2008).

Read-outs that look alike come from different tables or passages of the source.

For “SA-FF22: lantibiotic isolated from pathogenic Streptococcus pyogenes FF22 (SEQ ID NO 2) (GKNGVFKTISHECHLNTWAFLATCCS; Streptococcus pyogenes)”, the loss of activity is 50% (at a pH of 7 (Tagg et al., 1978)) and 75% (stored for 4 weeks at room temperature (Tagg et al., 1973)).
